Patent CN116410306A (ATTOGEN BIOMEDICAL SUZHOU INC LTD, dated 2023)

Tests used:
[1] = target: T1, HPV16 E6蛋白 (宫颈癌细胞株CaSki细胞内源表达) (HPV16, UniProt P03126 1-158); assay: immunocytochemistry on fixed CaSki cells, DAB
T1 construct: whole, on cells; Intracellular protein in fixed cells (95% ethanol, EDTA heat retrieval), stained by immunocytochemistry; also called CaSki阳性标准对照细胞

FLAG-HPV6 E6 [2] = target: T2, FLAG-HPV6 E6 (HPV6, UniProt P06462 1-150); assay: sandwich ELISA: flag antibody capture of 293T lysate, A4F9 supernatant 1:1
T2 construct: Flag-E6 fusion protein from transfected 293T cell lysate, captured on a coated flag antibody
T2 chain: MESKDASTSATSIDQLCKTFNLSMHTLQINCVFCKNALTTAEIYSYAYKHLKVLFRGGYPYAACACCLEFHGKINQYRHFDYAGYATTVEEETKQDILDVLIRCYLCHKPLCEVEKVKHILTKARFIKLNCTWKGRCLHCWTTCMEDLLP

FLAG-HPV11 E6 [3] = target: T3, FLAG-HPV11 E6 (HPV11, UniProt P04019 1-150); assay: as above
T3 construct: Flag-E6 fusion protein from transfected 293T cell lysate, captured on a coated flag antibody
T3 sequence: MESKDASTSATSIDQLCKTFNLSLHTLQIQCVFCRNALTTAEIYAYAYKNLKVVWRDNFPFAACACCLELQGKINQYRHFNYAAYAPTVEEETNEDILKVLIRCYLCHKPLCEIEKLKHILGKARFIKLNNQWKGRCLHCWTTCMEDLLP

[4] = target: T4, HPV18 E6蛋白 (宫颈癌细胞株Hela细胞内源表达) (HPV18, UniProt P06463 1-158, limits assumed); assay: immunocytochemistry on fixed HeLa cells mixed with a negative clinical pool, DAB
T4 construct: whole, on cells; Intracellular protein in fixed cells, stained by immunocytochemistry; HeLa cells were mixed into a pool of negative clinical samples
T4 sequence (P06463 whole entry): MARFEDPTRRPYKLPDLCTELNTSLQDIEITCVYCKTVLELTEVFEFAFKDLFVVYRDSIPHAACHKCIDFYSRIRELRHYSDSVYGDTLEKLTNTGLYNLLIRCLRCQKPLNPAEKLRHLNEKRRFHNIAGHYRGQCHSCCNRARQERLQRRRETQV

Flag-HPV16 E6 = target: T5, Flag-HPV16 E6 (HPV16, UniProt P03126 1-158); assay: sandwich ELISA: flag antibody capture of 293T lysate (fresh or liquid-based fixed)
T5 chain: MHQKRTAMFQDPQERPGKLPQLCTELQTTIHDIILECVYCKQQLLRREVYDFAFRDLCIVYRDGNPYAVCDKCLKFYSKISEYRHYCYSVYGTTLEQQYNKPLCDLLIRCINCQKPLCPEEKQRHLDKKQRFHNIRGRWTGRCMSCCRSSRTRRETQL

FLAG-HPV18 E6 = target: T6, FLAG-HPV18 E6 (HPV18, UniProt P06463 1-158); assay: as above
T6 construct: Flag-E6 fusion protein from transfected 293T cell lysate, captured on a coated flag antibody; also called 可溶性蛋白HPV18 E6
T6 sequence (P06463 whole entry, the tested form may be a part): as the sequence (P06463 whole entry) above

FLAG-HPV6 E6 [5] = target: T2, FLAG-HPV6 E6; assay: sandwich ELISA; (HPV OD450 - 293T negative control)/HPV16 OD450, HPV16 E6 = 100%
FLAG-HPV11 E6 [6] = target: T3, FLAG-HPV11 E6; assay: as above
FLAG-HPV68 E6 [7] = target: T7, FLAG-HPV68 E6 (HPV68); assay: as above
T7 construct: Flag-E6 fusion protein from transfected 293T cell lysate, captured on a coated flag antibody

FLAG-HPV6 E6 [8] = target: T2, FLAG-HPV6 E6; assay: sandwich ELISA: flag antibody capture of Flag-E6 from 293T lysate, A4F9 supernatant 1:1
FLAG-HPV11 E6 [9] = target: T3, FLAG-HPV11 E6; assay: as above
FLAG-HPV68 E6 [10] = target: T7, FLAG-HPV68 E6; assay: as above

B1: 抗HPV E6兔源单克隆抗体 A4F9 (antibody, V domains shown)
VH: QEQLVESGGGLVQPEGSLTLTCTASGFSFSSSYWICWVRQAPGKGLEWIACIYSGDGDAYYASWAKGRFTISKTSSTTVTLQMTSLTAADTAAYFCARDRVYDSSSGHGLWGPGTLVTVSS
VL: DIVMTQTPFSVSAAAGGTVTINCQASENIYSNLAWYQQKPGQRPKLLIYGTSDLPSGVPSRFSGSGYGTEFTLTISDLECADAATYYCQSYYYRSSSAYGWDFGGGTEVVVK
notes: Rabbit monoclonal from single B cell cloning, tested as clone supernatant (rabbit IgG, detected with goat anti-rabbit-HRP); also called 克隆上清A4F9; A4F9克隆
Q: Does B1 bind [1]?
A: Result: binds

Q: Does B1 bind (FLAG-HPV6 E6 [2])?
A: Result: no binding

Q: Does B1 bind (FLAG-HPV11 E6 [3])?
A: Result: no binding

Q: Does B1 bind [4]?
A: Result: binds

Q: Does B1 bind (Flag-HPV16 E6)?
A: Result: binds

Q: Does B1 bind (FLAG-HPV18 E6)?
A: Result: binds

Q: And the “%交叉活性” value (FLAG-HPV6 E6 [5])?
A: The value was -6.3%.

Q: What about the “%交叉活性” value (FLAG-HPV11 E6 [6]) of the same binder?
A: Its value is -5.2%.

Q: What about the “%交叉活性” value (FLAG-HPV68 E6 [7]) of the same binder?
A: The value was 6.3%.

Q: And the OD450 (FLAG-HPV6 E6 [8])?
A: Its OD450 is 0.1.

Q: What about the OD450 (FLAG-HPV11 E6 [9]) of the same binder?
A: Its OD450 is 0.1.

Q: What about the OD450 (FLAG-HPV68 E6 [10]) of the same binder?
A: The OD450 was 0.5.
